Reference: publication PMC5799202, “Eis, a novel family of arylalkylamine N-acetyltransferase (EC 2.3.1.87)” (Scientific Reports, 2018)
Read-outs that look alike come from different tables or passages of the source.

What was measured:
Eis_Mtb = target: T1, Eis_Mtb (Mycobacterium tuberculosis, UniProt P9WFK7); assay: dead-end inhibition kinetics, DTNB acetyltransferase assay, purified enzyme; type: biochemical
T1 construct: gene eis

[1] = tested on: CCC(=O)SCCNC(=O)CCNC(=O)[C@H](O)C(C)(C)COP(=O)(O)OP(=O)(O)OC[C@H]1O[C@@H](n2cnc3c(N)ncnc32)[C@H](O)[C@@H]1OP(=O)(O)O; assay: purified protein
NCCc1c[nH]cn1 = assay: purified protein
[2] = tested on: CC(=O)SCCNC(=O)CCNC(=O)[C@H](O)C(C)(C)COP(=O)(O)OP(=O)(O)OC[C@H]1O[C@@H](n2cnc3c(N)ncnc32)[C@H](O)[C@@H]1OP(=O)(O)O; assay: purified protein; settings: acetyl-CoA binding first followed by histamine (ordered sequential mechanism)
[3] = acetyl-CoA binds after acetyl-CoA to form a precatalytic ternary complex

T1 sequence (P9WFK7 2-402): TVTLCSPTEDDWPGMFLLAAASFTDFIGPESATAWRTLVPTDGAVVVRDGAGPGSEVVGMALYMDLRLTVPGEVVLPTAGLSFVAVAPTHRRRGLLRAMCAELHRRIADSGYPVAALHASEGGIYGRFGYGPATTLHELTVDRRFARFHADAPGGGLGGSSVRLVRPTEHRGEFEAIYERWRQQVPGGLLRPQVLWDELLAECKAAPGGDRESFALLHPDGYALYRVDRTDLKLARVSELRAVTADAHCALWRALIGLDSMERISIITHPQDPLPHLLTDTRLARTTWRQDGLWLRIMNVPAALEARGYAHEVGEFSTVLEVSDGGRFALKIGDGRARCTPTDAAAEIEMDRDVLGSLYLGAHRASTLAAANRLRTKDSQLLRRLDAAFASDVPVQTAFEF

Molecule: CCCCCCCC/C=C\CCCCCCCC(=O)SCCNC(=O)CCNC(=O)[C@H](O)C(C)(C)COP(=O)(O)OP(=O)(O)OC[C@H]1O[C@@H](n2cnc3c(N)ncnc32)[C@H](O)[C@@H]1OP(=O)(O)O [oleoyl-CoA]
- Ki (Eis_Mtb): 0.268 ± 0.0684 µM

Molecule: OCCc1ccc(O)cc1 [tyrosol]
- Ki (Eis_Mtb; read-out: Ki): 175 ± 48.7 µM

Molecule: Eis_Msm (Mycolicibacterium smegmatis MC2 155)
- Km [1]: 98 ± 23 µM

Molecule: Eis_Mtb (Mycobacterium tuberculosis H37Rv)
- Km [1]: 47 ± 10 µM
- kcat [1]: 0.6 ± 0.1 s⁻¹
- kcat/Km [1]: 14000 ± 4000 M⁻¹ s⁻¹
- Km (NCCc1c[nH]cn1): (28 ± 5.2) × 10^2 μM
- kcat (NCCc1c[nH]cn1; [3]): 0.5 ± 0.04 s⁻¹
- kcat/Km (NCCc1c[nH]cn1; [3]): 170 ± 83 M⁻¹ s⁻¹
- Km [2]: (1.2 ± 0.27) × 10^2 μM
- kcat [2]: 5.6 ± 0.2 s⁻¹
- kcat/Km [2]: 52000 ± 13000 M⁻¹ s⁻¹
